Reference: publication PMC5234120, “Age-related macular degeneration associated polymorphism rs10490924 in ARMS2 results in deficiency of a complement activator” (Journal of Neuroinflammation, 2017)
Each block holds one binder with its values, some of them ahead of it.

Legend:
properdin [1] = target: T1, properdin (human, UniProt P27918 28-469); assay: ELISA; ARMS2 peptides 1, 2, 3 (each 500 nM) coated on the plate; 2 uM properdin (TECOmedical) in PBS; detected with monoclonal properdin antibody; details: both partners purified
T1 construct: properdin (complement factor P), human; the oligomeric state of the purified protein was not measured here; also called purified properdin; source: bought: Complement Technologies (CompTech), purified; bought: TECOmedical GmbH (peptide ELISA); endogenous, normal human serum (NHS)

properdin [2] = target: T1, properdin; assay: BLI; BLITZ system; His-tagged ARMS2 loaded on Ni2+ NTA biosensors in PBS with 0.1% gelatin; properdin 70 to 1800 nM; 1:1 model; details: both partners purified

T1 sequence (P27918 28-469): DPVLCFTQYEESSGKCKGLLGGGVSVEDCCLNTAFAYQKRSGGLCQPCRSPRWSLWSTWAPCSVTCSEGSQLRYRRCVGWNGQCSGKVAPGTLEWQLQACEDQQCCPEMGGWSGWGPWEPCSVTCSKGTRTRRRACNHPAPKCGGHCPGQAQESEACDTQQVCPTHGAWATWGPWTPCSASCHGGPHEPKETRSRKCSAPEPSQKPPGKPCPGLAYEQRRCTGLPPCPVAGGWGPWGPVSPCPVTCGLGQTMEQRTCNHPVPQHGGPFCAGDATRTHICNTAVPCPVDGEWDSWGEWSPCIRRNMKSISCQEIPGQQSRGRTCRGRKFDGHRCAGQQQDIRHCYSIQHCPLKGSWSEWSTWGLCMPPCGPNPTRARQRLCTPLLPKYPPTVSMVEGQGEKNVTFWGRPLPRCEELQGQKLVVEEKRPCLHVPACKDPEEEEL

- binding result (properdin [1]): binds
B1: ARMS2 peptide 3 (amino acids 71 to 107) (peptide)
peptide: IHTELCLPAFFSPAGTQRRFQQPQHHLTLSIIHTAAR
notes: ARMS2, human, amino acids 71 to 107; also called C-terminal peptide 3 of ARMS2; source: peptide generated by Jerini Peptide Biotechnologies

- Kd (properdin [2]): 500 nM
B2: recombinant ARMS2 (age-related maculopathy susceptibility 2) (natural protein, human, UniProt P0C7Q2 1-107, looked up)
chain: MLRLYPGPMVTEAEGKGGPEMASLSSSVVPVSFISTLRESVLDPGVGGEGASDKQRSKLSLSHSMIPAAKIHTELCLPAFFSPAGTQRRFQQPQHHLTLSIIHTAAR
notes: ARMS2, human, codon usage optimized full length cDNA; Glycosylated in P. pastoris (17 and 15 kDa bands); also called His-tagged ARMS2; rARMS2
